From the DeepSol protein solubility set

Test: soluble on expression in E. coli; label from the status in PepcDB or PDB records

| Sequence | soluble on expression in E. coli |
| --- | --- |
| MNERFGELNFVTPDACSLRRMANKYYPYTMRQSFPLWTSISKEVQIVEGRELPVMQDLADRHPEINKMYGSAEELWENLKTFIDFQGNLQYFEVNPCVSYNHRFFIHKDISSDKKFLYKNDIFLSIQDNLIVRKPVLRNRVSLFMLAYFLKYHEKKLSTSCEFVEYVEKDFDNLINELNDFLLDFIKKPKPVANDANFDWKKVFTRLRNMLPEPMTEEEMSPLADVLKRYFETYPRAQAVGVLNMIEQFCKMMIPRLQKIMDKRPEWFLPNRTKNAKPVLRYFIDGKKPFVMVPEYEIATKEKFQYTDSSFMATGIDTIDLSDISLVASSNGGSLSDFYCIRFNIERTKHTARPIRTTTGTFCKLSADVLLEHLRDLFFGSRVFQSPTRSMFNGYVISMNEIFNSNAQGIYFLEESIIEFVEKISSGLFGTPESKTIRDVPPKGFTVGDVHSELKYLGLLEFFPNISNYAEIAYKKVVAEKKMKILRTCDMFDAVEICMMLAVFNGYPKLAQFLHSQHACHRIQGLQCKKCELEKKHPMMNSWLYPYMEVEEDEKVDSTSSDDEEKRTSTSELAGNGRKSEQKKLAVKDPEPSTMEKETRKSKCCESTKDQLKAFQEQVEALKKEMKELETAMSKNLKN | not soluble |
| MLSRSAKPVAPNSPLMALLPYSFNRPINVLVMGLDQSETGEQAEKFDTRSDTLLLLRFDPLEGTTSLLSIPRDTQVAIPGYGTTKINAANVFGGPALAADVVSRTLNDVPIDRYLRIDTTAFKELVDLVGGVEVYVPKPMRYTDNTQKLYIDLPAGRQTLNGDQAEQFARFRYDELGDIGRVQRQQMLLRALREKLANPLILTKAPDLVKVLQKYVDTNLSFEELMALVSIGLQQDLANIRMVMLPGRPIMQDDVSYWRLDEGARDRLVSDFFNQISIQPIDRLAFEDLRVAIQDSSGKPEAAQALAESLAKLGIRRVYIIEDWPEPLEKTQIIAQRGDLIQAEGLQQQLNLGEVRASSDGDIGSDLTIRIGQDWQPTPSPKPLEHHHHHH | soluble |
| RSLVSVHNEWDPLEEVIVGTAVGARVPTADRSVFAVEYAGDYESQEQIPSGAYPDRVLKETEEELHVLAAELTKLGVTVRRPGPRDHSALIKTPDWETDGFHDYCPRDGLLSVGQTIIETPMALRSRFLESLAYKDLLLEYFASGSRWLSAPKPRLTDDSYAPQAPAGERLTDEEPVFDAANVLRFGTDLLYLVSDSGNELGAKWLQSAVGDTYTVHPCRKLYASTHVDSTIVPLRPGLVLTNPSRVNDENMPDFLRSWENITCPELVDIGFTGDKPHCSVWIGMNLLVVRPDLAVVDRRQTALIRLLEKHGMNVLPLQLTHSRTLGGGFHCATLDVRRTGALETYQF | soluble |
| MRGSHHHHHHGSMSQPDATPFDYILSGGTVIDGTNAPGRLADVGVRGDRIAAVGDLSASSARRRIDVAGKVVSPGFIDSHTHDDNYLLKHRDMTPKISQGVTTVVTGNCGISLAPLAHANPPAPLDLLDEGGSFRFARFSDYLEALRAAPPAVNAACMVGHSTLRAAVMPDLRREATADEIQAMQALADDALASGAIGISTGAFYPPAAHASTEEIIEVCRPLITHGGVYATHMRDEGEHIVQALEETFRIGRELDVPVVISHHKVMGKLNFGRSKETLALIEAAMASQDVSLDAYPYVAGSTMLKQDRVLLAGRTLITWCKPYPELSGRDLEEIAAERGKSKYDVVPELQPAGAIYFMMDEPDVQRILAFGPTMIGSDGLPHDERPHPRLWGTFPRVLGHYSRDLGLFPLETAVWKMTGLTAAKFGLAERGQVQPGYYADLVVFDPATVADSATFEHPTERAAGIHSVYVNGAAVWEDQSFTGQHAGRVLNRAGA | soluble |
| MAHHHHHHMALTQSSGEPLRSMQGGVGGVSYADGAGQAPEHINRASATPVLTEEAVQSSIETFEDAACVREEAVRSYAEFHNNVESLHATMHTQLRPVWRTAMQLRPEILSDVRDEWCLRRRDNIPDGIPIPAAAAQHIALQETILSEVEDMLQVLRNTSVRFAAHFLSDEEKISMGANPAYLRAPDIDKEVVVSRSQSTSTSPQRALPASVMSVSSSAGAVASAPIKPSASSAATAAVHTPREGHSRHHQGSYVQHHHHHSDDEAGLVSSSSNRHVCSGKSSCGSRSAGEDPLLEELRKQYQLRIRELKAQSEAGASRRSEHGASQSAAAPPPRRGNRARVAASRSLSLPSWASSASASVLTSSSSTVSRR | soluble |
| MRFAVLGSGSRGNGTLVASNDTYVLVDCGFSLRETERRLARLGVAASQLSAILVTHEHADHVHGVGLLSRRYNVPVYLSSGTLRGMRKPVEVAGLLAGGESLQIGALDIDVVSVAHDALEPTQFVFSDGSRRFGLLTDLGSYCSNVLQRYQGLDALMIEANHCRDMLARGQYPVFLKQRVGCETGHLNNHQAASLVSELGWQDLQHLVLAHLSSKNNLPHLARQCFVDTLGCDPDWLQLADQDSGLDWRHIALEHHHHHH | not soluble |
| MSISSDWIVPDWPAPPSVRALSTTRQGGVSTGPYGLAGGLPGGLNLGRHVGDGPDAVTQNRRLLRAVLPAEPAWMEQVHGTVVADLDQPLPAPVVADAAIAASPGRVCVVMTADCLPVLLCDARGVTVGAAHAGWRGLCSGVIEQTVERMTDALRACGQEADPTWLAWLGPAIGPDCFEVGAEVRQAFIDAARPDELPATRAAFAEGAADGKFLADLYALARLRLARAGCRDVHGGGLCTMTDAERFYSYRRDRTTGRMATLIWRAA | soluble |
| MLSAESLKQIDIELAKYPADQRRSAIMGALRIAQTEKGWLAPETIAFVADYIGITPAQAYEVATFYNMYDLEPVGKYKLTVCTNLPCALRGGMATGEYLKQKLGIGYGETTPDGKFTLVEGECMGACGDAPVMLVNNHSMCSFMTEEAIEKKLAELE | not soluble |
| MAGSGVAKQIFALDFEIFGRVQGVFFRKHTSHEAKRLGVRGWCMNTRDGTVKGQLEAPMMNLMEMKHWLENNRIPNAKVSKAEFSQIQEIEDYTFTSFDIKH | soluble |
| FPSGSAQLSARLYLPAGTPQVAVVINGATGVPREYYQHFATWLAAERGIACLTYDYRDFGHSLRGPLAASTATMSDWALIDMPAAYAEMQRRYPDLPLWVIGHSVGGMLGPLQPGIEPIARMICVCSGLVHHSDHPWPYQALARLFWFGHAPLLVKTLGYLPGRRIGFGSDLPPGVYWEWRRWCTTPGAYLPEMGDRLPQADWSRSGAPVDMFAFEDDTTIPPNCVWRLADVYGETVRRHLLHPRAFGLREIGHLGAFARRNAALWPRLIA | not soluble |
| MAAKRPPASTLKWCQQEMGPICEGIGMVVRSQIGYDGRRIEKQIRRKALQTVVMGGQDVDPLKEPNKTNAPLLSPTLPSTNEALQRARVVAAGIETFAKLMSQGTYPGSAGFTVSETGERKYMKQTSPVQSNIVANLMATADKLSKGVISLAPFPLPTITKLGTWVIANPTAQLPIPPQLKSAIPAIGQIETLIQSILGVQGPVSSVSRAPRKLKLEGVTDQVVLEPETIHATVDVEPIDKTLTKEEAEFLIKAARSVDDDNAETAIFGTQKAKPKVYRPELPKNFEVNLEMGNVHTLTRSNESSVPATRIGRLATFGQLAFGLLGGATAEVTRRTFGIGKRLQEEGIPKNPFLSEANADRIVATLCRVRGAALKLGQMLSIQDSSTVPPALLQIFERVRQSADFMPIKQVHRQMKDAFGDDWREKFEHFDDKPFACASIGQVHKAVLKDGRNVAVKVQYPGVAEGIDSDIDNLVSVLSVGGIFPKGMFLDAFVGVARRELKQECDYEREARAMKKFRELIADWQDVYVPEVIDELSSSRVLTTELVYGKPVDACVEEPQVVRDYIAGKFIELCLKEIFLWRFMQTDPNWSNFFLGKHPKTGEPRLVLLDFGASRAYGKKFVDIYMNIIKSAYDGDKKKIIEYSREIGFLTGYETSVMEDAHVESVMIMGETLASNHPYNFANQDVTMRIQKLIPVMLEHRLTSPPEEIYSLHRKLSGCYLLAAKLKATVSCGGLFHEIHENYVFGEDGIDINID | not soluble |
| MSLFHDVRFPVSLSFGARGGPERRTEIVTLANGAEERNTPWAHSRRRFDAGMGLRSLDDLETVIAFFEARAGQMHAFRWKDWSDFKSCRPSASPAPTDQLLGMGDETTATFQLVKHYGTGGDTYARPITRPVAGTVQVAVGGSPVTEGVEWSVDTATGMVTFTHPPDVGGEVTAGFEFDVPVRFDTDRIETSLASFNAGEVPDLPVVEVRPEGHHHHHH | soluble |
| MTSRWGKYLLSGIMIAVLAGCQSRPTDRGQQYKDGRLEQSLELVNEPNAAGKPVNAKDYSDQVKVINQSSPGLYNRNSDTFNAVQNWMLAGADTSKLSLFGLNAYQMEGVDNFGNVQFTGYYTPVLQARYTPQGEFRHPLYRMPAKGKRRLPDRAAIYAGALDNRNLIIAYTNSLVDNFMMEVQGSGYVDYGDGRPLTFFGYAGKNGHAYRSIGKVLIDRGEVARADMSMQAIRQWAENHSEAEVRELLEQNPSFVFFKPVMYAPVKGASAVPLIAKASVASDKSLIPPGTTLLAEVPLLDDQGKFTGKYQMRLMVALDVGGAIKGQHFDIYQGIGHEAGQAAGFYNHYGRVWVLKNAQSSGPLFTAYKGGTQSEPTSNDSSLLVNNQDR | not soluble |
| MAVSDNTFSMSTMFNALPNPTETSGYIPPSGFAPRASATPLHAALFNLMTDGDGVSYFKEMISKSDKTELQRMASLLTSDSDYFMSIVTTKFGSRRVQKLLGKSDDVDAFFCAAILRRFLHITTDKYASYVTIRAMVVFDKVMKKALYERILYHALDLACDQHGCIALNDIITDADDPYYRDQLLELVVSNALRLSNDASGNFVVQHVLTLYDSRCIHNIAVNLYGQCIELSFKKYGSYIVEKLLEVEESMVVVVVELLGCDGDRLMRLARNEFGNFVVVKALRFTKEMRMDLFWGLVQKLMPFIHLLRRSHGNNIANILDTFRLRC | soluble |
| MLSEETIRVIKSTVPLLKEHGTEITARMYELLFSKYPKTKELFAGASEEQPKKLANAIIAYATYIDRLEELDNAISTIARSHVRRNVKPEHYPLVKECLLQAIEEVLNPGEEVLKAWEEAYDFLAKTLITLEKKLYSQP | soluble |
| LTSSNALRGDAHSRLAAHRGLLERTSRTTRVAGILRDAIIDGTFRPGARLSEPDICAALDVSRNTVREAFQILIEDRLVAHELNRGVFVRVPTAEDITELYICRRVVECAGVNGFDPATGDLSRVAEALDLADERYAVEDWTGVGTADIHFHSALASLNNSNRIDELMRSVWNEARLVFHVMDDAHRFHGPYLTRNHEIYDALAAGNTEAAGQLLKTYLEDAEAQILGAYRPVSG | soluble |
| MSVVPVADVLQGRVAVDSEVTVRGWVRTRRDSKAGISFLAVYDGSCFDPVQAVINNSLPNYNEDVLRLTTGCSVIVTGKVVASPGQGQQFEIQASKVEVAGWVEDPDTYPMAAKRHSIEYLREVAHLRPRTNLIGAVARVRHTLAQALHRFFNEQGFFWVSTPLITASDTEGAGEMFRVSTLDLENLPRNDQGKVDFDKDFFGKESFLTVSGQLNGETYACALSKIYTFGPTFRAENSNTSRHLAEFWMLEPEVAFANLNDIAGLAEAMLKYVFKAVLEERADDMKFFAERVDKDAVSRLERFIEADFAQVDYTDAVTILENCGRKFENPVYWGVDLSSEHERYLAEEHFKAPVVVKNYPKDIKAFYMRLNEDGKTVAAMDVLAPGIGEIIGGSQREERLDVLDERMLEMGLNKEDYWWYRDLRRYGTVPHSGFGLGFERLIAYVTGVQNVRDVIPFPRTPRNASF | soluble |
